# Values quoted from earlier work as cited in patent US20250241861A1, “Mechano-Sensitive Microcapsules For Drug Delivery” (The Trustees of the University of Pennsylvania, priority 2015, published 2025).
# B1: TGF-β3: transforming growth factor beta, anabolic compound / chondrogenic factor (protein, UniProt P10600 301-412, looked up)
# Transforming growth factor …: ALDTNYCFRNLEENCCVRPLYIDFRQDLGWKWVHEPKGYYANFCSGPCPYLRSADTTHSTVLGLYNTLNPEASASPCCVPQDLEPLTILYYVGRTPKVEQLSNMVVKSCKCS
# Assays:
# engineered cartilage = conditions: 10 ng/ml, 5 days post-injury
# [1] = tested on: MMP activity in chondrocytes; conditions: 10 ng/ml, after inflammatory stimulation of chondrocytes
molecule,measurement,setting,value
B1,reduction of GAG loss compared to injured controls,engineered cartilage,about 30%
same,MMP activity,[1],reduce MMP activity
